Experimental data reported in article PMC5992339, “The Structure of an Infectious Human Polyomavirus and Its Interactions with Cellular Receptors” (Structure(London, England:1993), 2018).

Target: the molecule itself
Experiment: cryo-EM structure; purified native BKV virions (0.25 mg/ml) adsorbed on carbon-coated lacey grids in buffer A without Triton X-100; icosahedral reconstructions: unliganded 3.8 A, with 20 mM GT1b oligosaccharide 3.4 A, with heparin 10 mg/ml 3.6 A, with 5 mM DTT (reduced) 6.5 A

B1: BK polyomavirus major capsid protein VP1 (natural protein)
chain: MAPTKRKGECPGAAPKKPKEPVQVPKLLIKGGVEVLEVKTGVDAITEVECFLNPEMGDPDENLRGFSLKLSAENDFSSDSPERKMLPCYSTARIPLPNLNEDLTCGNLLMWEAVTVQTEVIGITSMLNLHAGSQKVHEHGGGKPIQGSNFHFFAVGGEPLEMQGVLMNYRSKYPDGTITPKNPTAQSQVMNTDHKAYLDKNNAYPVECWVPDPSRNENARYFGTFTGGENVPPVLHVTNTATTVLLDEQGVGPLCKADSLYVSAADICGLFTNSSGTQQWRGLARYFKIRLRKRSVKNPYPISFLLSDLINRRTQRVDGQPMYGMESQVEEVRVFDGTERLPGDPDMIRYIDKQGQLQTKML
notes: Major capsid protein VP1 of BK polyomavirus, Dunlop strain, as it stands in the native virion made from the genome of plasmid pGEM7-Dunlop; the model is built up to Lys359 in chain 6, and the first 13 residues of chain 2 are not resolved; Protein of the native virion, with no tags and no truncation; The capsid is built from 72 pentons of VP1 (T = 7d); also called BKV VP1; chains 1-6 (the six …)
B1: binds.
